Test results published in the supplement of paper PMC10065799, “High-throughput profiling of sequence recognition by tyrosine kinases and SH2 domains using bacterial peptide display” (eLife, 2023).

Tests used:
FGFR3 = FGFR3 (UniProt P22607); assay: phosphorylation enrichment, bacterial display (enrichment ratio); higher = better substrate or ligand; peptides without Tyr show the background
c-Src = assay: as above
EPHB2 = EPHB2 (UniProt P29323); assay: as above
AncSZ = assay: as above
Fes = Fes (UniProt P07332); assay: as above
Sequence of Fes (P07332 whole entry, looked up): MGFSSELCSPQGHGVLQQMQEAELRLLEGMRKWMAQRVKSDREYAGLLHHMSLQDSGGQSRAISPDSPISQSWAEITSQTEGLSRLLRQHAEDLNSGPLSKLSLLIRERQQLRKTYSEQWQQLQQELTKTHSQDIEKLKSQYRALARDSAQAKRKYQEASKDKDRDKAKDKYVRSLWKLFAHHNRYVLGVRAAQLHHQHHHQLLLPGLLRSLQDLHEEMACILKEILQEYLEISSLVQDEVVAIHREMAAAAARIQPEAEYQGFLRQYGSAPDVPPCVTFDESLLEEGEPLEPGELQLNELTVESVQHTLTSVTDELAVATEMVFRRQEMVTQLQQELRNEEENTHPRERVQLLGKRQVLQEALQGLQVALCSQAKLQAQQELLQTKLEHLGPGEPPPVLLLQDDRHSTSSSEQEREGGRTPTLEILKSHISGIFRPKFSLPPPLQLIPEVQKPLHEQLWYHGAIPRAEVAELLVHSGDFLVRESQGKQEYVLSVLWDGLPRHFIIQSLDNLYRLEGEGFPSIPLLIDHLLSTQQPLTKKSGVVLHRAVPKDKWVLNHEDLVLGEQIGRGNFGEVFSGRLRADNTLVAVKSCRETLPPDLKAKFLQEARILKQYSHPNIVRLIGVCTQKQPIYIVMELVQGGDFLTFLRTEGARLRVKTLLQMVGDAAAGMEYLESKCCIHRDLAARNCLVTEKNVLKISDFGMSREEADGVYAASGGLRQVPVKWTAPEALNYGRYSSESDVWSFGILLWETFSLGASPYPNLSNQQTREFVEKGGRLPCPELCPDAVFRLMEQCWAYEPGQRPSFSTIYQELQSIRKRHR

Fer (mouse) = assay: as above
Hck = Hck (UniProt P08631); assay: as above
Sequence of Hck (P08631 whole entry, looked up): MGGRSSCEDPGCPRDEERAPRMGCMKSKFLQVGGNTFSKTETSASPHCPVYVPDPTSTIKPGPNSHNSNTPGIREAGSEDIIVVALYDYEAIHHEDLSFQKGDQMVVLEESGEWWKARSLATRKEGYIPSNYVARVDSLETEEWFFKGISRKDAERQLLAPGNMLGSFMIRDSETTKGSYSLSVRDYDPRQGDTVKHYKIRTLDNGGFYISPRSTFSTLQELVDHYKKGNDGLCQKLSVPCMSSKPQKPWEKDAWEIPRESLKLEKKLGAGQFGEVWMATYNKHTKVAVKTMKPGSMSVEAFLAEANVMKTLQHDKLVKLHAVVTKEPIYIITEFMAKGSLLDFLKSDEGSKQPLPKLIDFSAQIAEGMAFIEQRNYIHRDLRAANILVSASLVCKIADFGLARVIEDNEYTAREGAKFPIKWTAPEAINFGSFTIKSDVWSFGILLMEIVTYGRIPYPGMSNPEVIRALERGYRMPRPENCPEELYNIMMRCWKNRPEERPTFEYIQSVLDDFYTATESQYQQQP

MERTK = MERTK (UniProt Q12866); assay: as above
Fyn = Fyn (UniProt P06241); assay: as above
Sequence of Fyn (P06241 whole entry, looked up): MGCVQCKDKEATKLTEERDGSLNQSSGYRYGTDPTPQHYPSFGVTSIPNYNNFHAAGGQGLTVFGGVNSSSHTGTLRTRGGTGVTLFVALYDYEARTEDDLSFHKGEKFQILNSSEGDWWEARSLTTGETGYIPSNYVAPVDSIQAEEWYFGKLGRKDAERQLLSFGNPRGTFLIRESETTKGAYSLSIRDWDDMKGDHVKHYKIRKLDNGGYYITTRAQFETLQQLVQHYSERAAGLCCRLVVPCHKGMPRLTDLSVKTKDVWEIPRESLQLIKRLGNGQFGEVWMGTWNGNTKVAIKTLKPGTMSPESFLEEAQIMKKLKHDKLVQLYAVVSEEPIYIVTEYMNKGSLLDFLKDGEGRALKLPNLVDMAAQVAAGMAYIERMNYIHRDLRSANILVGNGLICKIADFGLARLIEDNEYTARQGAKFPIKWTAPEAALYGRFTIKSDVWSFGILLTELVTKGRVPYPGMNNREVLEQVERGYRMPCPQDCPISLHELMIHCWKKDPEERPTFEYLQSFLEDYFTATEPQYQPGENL

FGFR1 = FGFR1 (UniProt P11362); assay: as above
Sequence of FGFR1 (P11362 whole entry, looked up): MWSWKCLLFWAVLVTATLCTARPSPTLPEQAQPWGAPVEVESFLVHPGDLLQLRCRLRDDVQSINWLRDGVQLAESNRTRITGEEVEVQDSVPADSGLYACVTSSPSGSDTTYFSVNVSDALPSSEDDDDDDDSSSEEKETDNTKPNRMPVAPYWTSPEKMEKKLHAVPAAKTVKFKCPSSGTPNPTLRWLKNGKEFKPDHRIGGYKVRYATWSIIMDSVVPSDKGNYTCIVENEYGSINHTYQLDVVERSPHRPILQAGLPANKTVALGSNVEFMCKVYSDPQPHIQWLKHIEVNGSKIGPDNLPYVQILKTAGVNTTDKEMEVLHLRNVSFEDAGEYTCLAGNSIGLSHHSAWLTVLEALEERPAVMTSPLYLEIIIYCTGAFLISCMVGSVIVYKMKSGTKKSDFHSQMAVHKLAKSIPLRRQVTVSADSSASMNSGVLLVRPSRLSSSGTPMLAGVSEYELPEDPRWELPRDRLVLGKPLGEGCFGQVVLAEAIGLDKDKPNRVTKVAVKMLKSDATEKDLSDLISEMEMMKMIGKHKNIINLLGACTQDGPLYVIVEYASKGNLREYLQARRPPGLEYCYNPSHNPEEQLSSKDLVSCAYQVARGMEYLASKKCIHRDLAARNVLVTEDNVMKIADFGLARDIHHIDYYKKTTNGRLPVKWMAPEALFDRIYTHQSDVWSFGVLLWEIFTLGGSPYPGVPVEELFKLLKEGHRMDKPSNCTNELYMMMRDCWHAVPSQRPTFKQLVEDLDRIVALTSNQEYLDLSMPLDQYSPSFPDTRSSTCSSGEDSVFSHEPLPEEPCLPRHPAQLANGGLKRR

Jak2 = Jak2 (UniProt O60674); assay: as above
EPHB1 = EPHB1 (UniProt P54762); assay: as above
Sequence of EPHB1 (P54762 whole entry, looked up): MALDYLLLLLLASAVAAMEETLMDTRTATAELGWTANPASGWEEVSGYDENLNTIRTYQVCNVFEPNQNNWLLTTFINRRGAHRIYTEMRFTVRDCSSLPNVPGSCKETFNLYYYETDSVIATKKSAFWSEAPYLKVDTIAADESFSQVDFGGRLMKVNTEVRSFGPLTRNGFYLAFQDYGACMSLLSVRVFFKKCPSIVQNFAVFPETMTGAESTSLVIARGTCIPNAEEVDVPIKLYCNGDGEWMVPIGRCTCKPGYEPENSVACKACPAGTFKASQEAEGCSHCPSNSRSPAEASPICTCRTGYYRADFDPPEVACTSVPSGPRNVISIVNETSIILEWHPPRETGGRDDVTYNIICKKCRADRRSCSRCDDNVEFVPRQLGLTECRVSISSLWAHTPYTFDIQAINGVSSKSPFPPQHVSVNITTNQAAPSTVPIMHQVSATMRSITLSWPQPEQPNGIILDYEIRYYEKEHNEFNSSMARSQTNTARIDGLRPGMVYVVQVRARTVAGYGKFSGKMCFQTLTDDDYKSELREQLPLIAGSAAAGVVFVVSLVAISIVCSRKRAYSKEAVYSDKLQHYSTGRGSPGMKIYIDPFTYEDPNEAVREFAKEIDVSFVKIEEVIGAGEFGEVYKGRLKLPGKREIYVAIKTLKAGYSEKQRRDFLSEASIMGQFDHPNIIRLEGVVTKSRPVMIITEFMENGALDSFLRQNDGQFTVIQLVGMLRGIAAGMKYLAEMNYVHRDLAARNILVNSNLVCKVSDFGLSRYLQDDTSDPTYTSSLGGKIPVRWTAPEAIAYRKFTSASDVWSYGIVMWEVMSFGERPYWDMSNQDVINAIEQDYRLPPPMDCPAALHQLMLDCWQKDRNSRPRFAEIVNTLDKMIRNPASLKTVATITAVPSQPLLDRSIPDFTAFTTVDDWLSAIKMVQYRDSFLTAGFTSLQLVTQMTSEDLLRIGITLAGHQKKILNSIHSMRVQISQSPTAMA

c-Abl (mouse) = assay: as above
c-Src SH2 = assay: SH2 binding enrichment of the phosphorylated peptide, bacterial display (enrichment ratio); higher = better substrate or ligand; peptides without Tyr show the background
Grb2 SH2 = Grb2 SH2 (UniProt P62993); assay: as above
SHP2-C SH2 = assay: as above
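Wherever SH2 binding enrichment of the phosphorylated peptide, bacterial display is given: peptide library displayed on the E. coli surface as eCPX fusions, selected cells deep-sequenced, score is each peptide's frequency after selection divided by its frequency in the input.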
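Wherever phosphorylation enrichment, bacterial display is given: 11-residue human phosphosite peptides and single-mutation variants displayed on the E. coli surface, counted by deep sequencing, each peptide's frequency after selection divided by its frequency in the unselected input library; frequency after pTyr selection over input frequency; kinase dosed for 20-30% of maximal phosphorylation in three min.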

Sequence of EPHB2 (P29323 whole entry, looked up): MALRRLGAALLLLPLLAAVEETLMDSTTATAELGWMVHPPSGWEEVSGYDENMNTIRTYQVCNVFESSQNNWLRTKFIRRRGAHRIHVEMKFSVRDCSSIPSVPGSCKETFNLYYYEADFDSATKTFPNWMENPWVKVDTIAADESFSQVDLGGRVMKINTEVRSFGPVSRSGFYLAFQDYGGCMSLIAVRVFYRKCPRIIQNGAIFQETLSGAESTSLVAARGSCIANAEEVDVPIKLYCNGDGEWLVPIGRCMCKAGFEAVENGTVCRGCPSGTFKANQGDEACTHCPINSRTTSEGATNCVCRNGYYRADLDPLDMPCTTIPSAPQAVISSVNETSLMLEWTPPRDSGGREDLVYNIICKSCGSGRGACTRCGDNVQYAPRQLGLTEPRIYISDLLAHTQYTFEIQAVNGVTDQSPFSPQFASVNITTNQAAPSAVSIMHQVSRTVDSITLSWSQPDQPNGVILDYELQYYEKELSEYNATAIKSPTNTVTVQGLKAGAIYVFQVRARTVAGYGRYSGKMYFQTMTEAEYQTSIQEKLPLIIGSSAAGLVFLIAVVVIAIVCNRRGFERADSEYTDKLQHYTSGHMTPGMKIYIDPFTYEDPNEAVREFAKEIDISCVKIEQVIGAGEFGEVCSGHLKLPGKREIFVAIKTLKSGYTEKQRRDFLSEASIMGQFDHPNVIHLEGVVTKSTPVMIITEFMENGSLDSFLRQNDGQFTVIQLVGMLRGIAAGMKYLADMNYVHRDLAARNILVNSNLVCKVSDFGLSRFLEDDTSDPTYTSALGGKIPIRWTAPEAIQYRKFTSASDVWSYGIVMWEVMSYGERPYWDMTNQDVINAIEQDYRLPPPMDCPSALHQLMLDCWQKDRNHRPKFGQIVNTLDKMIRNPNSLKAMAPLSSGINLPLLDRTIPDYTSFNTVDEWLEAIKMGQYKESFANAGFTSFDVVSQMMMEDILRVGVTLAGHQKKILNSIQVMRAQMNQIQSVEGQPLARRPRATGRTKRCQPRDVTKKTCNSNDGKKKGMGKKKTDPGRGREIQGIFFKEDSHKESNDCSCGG

SH2 binding enrichment (c-Src SH2)	SH2 binding enrichment (Grb2 SH2)	SH2 binding enrichment (SHP2-C SH2)	Sequence	phosphorylation enrichment (FGFR3)	phosphorylation enrichment (c-Src)	phosphorylation enrichment (EPHB2)	phosphorylation enrichment (AncSZ)	phosphorylation enrichment (Fes)	phosphorylation enrichment (Fer (mouse))	phosphorylation enrichment (Hck)	phosphorylation enrichment (MERTK)	phosphorylation enrichment (Fyn)	phosphorylation enrichment (FGFR1)	phosphorylation enrichment (Jak2)	phosphorylation enrichment (EPHB1)	phosphorylation enrichment (c-Abl (mouse))
0.53	0.813	0.729	VAVTKYCKEEL [ATP7B_Y1078]	0.776	0.477	0.547	0.877	0.917	0.494	0.593	0.37	0.455	0.498	0.844	0.508	0.651
0.648	0.872	0.7	VCDSNYSASRW [LRP5_Y1552_D1551N]	0.626	0.396	1.85	0.719	0.864	0.513	0.508	0.426	0.483	0.509	0.618	1.62	0.507
0.458	0.76	0.624	VDESLYKTHPQ [HK1_Y417_G414E]	0.699	0.541	0.706	0.904	0.989	0.572	0.656	0.553	0.592	0.644	0.811	0.513	0.9
0.451	0.881	0.604	VDLSKYITTIA [FAS_Y232]	0.452	0.424	0.341	0.657	0.815	0.394	0.407	0.426	0.348	0.363	0.67	0.378	0.513
6.34	0.677	0.541	VDSAHYQLLET [DTX3L_Y385_K386Q]	0.952	0.705	0.616	0.946	0.909	4.07	0.709	1.13	0.588	1.14	0.891	0.813	0.728
2.09	0.803	1.27	VDTPMYATMQR [TPO_Y55_A53P]	0.684	3.3	0.838	0.826	0.942	0.706	5.46	1.81	3.58	0.52	0.593	1.1	2.11
0.603	0.807	0.658	VECRVYAEDPY [PCCA_Y401]	1.13	0.75	0.794	1.47	1.73	0.708	0.686	0.56	0.612	0.619	1.26	0.908	1.28
0.494	0.894	0.828	VEDDMYRKTCT [XPA_Y257_L252V]	0.868	0.544	0.636	1.33	1.3	0.696	0.626	0.507	0.602	0.559	1.33	0.676	0.932
0.515	0.875	0.601	VEDQFYRVDCF [FHL1_Y208_C209R_YF]	0.831	1.1	0.587	1.16	1.34	0.559	0.551	0.557	0.693	0.522	1.24	0.692	0.863
3.49	0.934	0.686	VERIGYDFIPT [CBS_Y308_G305R]	0.605	0.434	0.461	0.759	0.801	0.417	0.571	0.521	0.529	0.56	0.611	0.544	0.593
0.534	1.01	0.798	VGQRPYQPLPE [REEP3_Y170]	0.525	0.393	0.424	0.617	0.649	0.336	0.36	0.406	0.375	0.47	0.505	0.38	0.547
0.473	0.977	1.06	VGSIEYLKREW [KCNMA1_Y885]	0.612	0.446	0.487	0.823	0.967	0.447	0.511	0.38	0.359	0.523	0.927	0.35	0.488
0.802	1.16	0.723	VGSIKYLKREW [KCNMA1_Y885_E884K]	0.431	0.38	0.505	0.68	0.754	0.465	0.446	0.311	0.395	0.412	0.61	0.56	0.482
0.972	1.3	1.36	VHLFAYDWISI [BEST1_Y227_G222V_YF]	1.17	0.651	0.868	1.27	1.38	10.4	0.804	4.12	0.589	1.41	1.04	1.06	0.69
1.97	0.87	0.858	VIEFSYTSADG [DHCR7_Y382_C380Y_YF]	0.652	0.341	0.504	0.944	1.16	0.499	0.503	0.415	0.442	0.444	0.764	0.562	0.608
1.3	1.95	1.74	VIIVLYFSLWK [SLC6A2_Y249_V245I]	0.548	0.386	0.371	0.774	0.631	0.471	0.369	0.354	0.375	0.462	0.702	0.363	0.693
1.04	1.15	1.25	VIKDKYPKARF [APTX_Y209_YF]	0.504	0.408	0.297	0.455	0.672	0.288	0.332	0.374	0.294	0.425	0.772	0.339	0.646
